What was measured:
[1] = target: T1, human CD47 expressed on the cell surface (human, UniProt Q08722 19-323); assay: blocking of human SIRPα binding to OCI-Ly3 cells (FIG. 21)
T1 construct: whole, on cells; also called CD47 on Raji, OCI-Ly3, Fadu cells, human RBCs, platelets and blood cells

[2] = target: T2, CD20 on cells (Raji cells, human B cells) (human, UniProt P11836 1-297); assay: binding to Raji cells (CD20+/CD47+), FIG. 17
T2 construct: whole, on cells; The cells that carry it (Raji, B cells) also carry CD47
T2 sequence (looked up): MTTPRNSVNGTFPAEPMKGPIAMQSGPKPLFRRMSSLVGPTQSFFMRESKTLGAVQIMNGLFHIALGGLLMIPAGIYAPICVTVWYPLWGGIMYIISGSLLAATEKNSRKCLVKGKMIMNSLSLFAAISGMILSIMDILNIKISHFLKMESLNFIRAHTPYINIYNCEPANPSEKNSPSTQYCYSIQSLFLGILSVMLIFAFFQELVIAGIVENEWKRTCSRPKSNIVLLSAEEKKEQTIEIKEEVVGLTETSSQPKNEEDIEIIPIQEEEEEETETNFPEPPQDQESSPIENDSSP

[3] = target: T1, human CD47 expressed on the cell surface; assay: cell-based or functional assay

B1: TPP-23 (408_437 Fab with IgG1) (antibody, V domains shown)
VH: QMQLVQSGAEVKKPGSSVKVSCKASGFNIKDYYLHWVRQAPGKGLEWMGWIDPDQGDTEYAQKFQGRVTITRDRSTSTAYMELRSLRAEDTAVYYCNAAYGSSSYPMDYWGQGTLVTVSS
VL: NIQMTQSPSSLSASVGDRVTITCRASQDIHRYLSWFQQKPGKVPKHLIYRANRLVSGVPSRFSGSGSGTEFTLTISSLQPEDFATYYCLQYDEFPYTFGGGTKVEIK
notes: also called parental CD47 mAb
How did the EC50 [1] turn out when B1 was run?
The EC50 was 0.11 nM.

B2: rituximab (antibody, human IgG1, kappa, V domains shown)
VH: QVQLQQPGAELVKPGASVKMSCKASGYTFTSYNMHWVKQTPGRGLEWIGAIYPGNGDTSYNQKFKGKATLTADKSSSTAYMQLSSLTSEDSAVYYCARSTYYGGDWYFNVWGAGTTVTVSA
VL: QIVLSQSPAILSASPGEKVTMTCRASSSVSYIHWFQQKPGSSPKPWIYATSNLASGVPVRFSGSGSGTSYSLTISRVEAEDAATYYCQQWTSNPPTFGGGTKLEIKR
notes: Anti-CD20 antibody, bivalent to CD20; also called rituxan
B2 was tested. Which EC50 [2] did it give?
The EC50 was ~1.1 nM.

B3: TPP-1360 (bispecific antibody, human IgG1, kappa)
light 1: NIQMTQSPSSLSASVGDRVTITCRASQDIHRYLSWFQQKPGKVPKHLIYRESRFVDGVPSRFSGSGSGTEFTLTISSLQPEDFATYYCLQYDEFPYTFGGGTKVEIKRTVAAPSVFIFPPSDEELKSGTASVVCWLNNFYPREAKVQWKVDNALQSGNSEESVTEQDSKDSTYSLSSTLELSKADYEKHKVYACEVTHQGLSSPVTKSFNRGEC
heavy 1: QMQLVQSGAEVKKPGSSVKVSCKASGFNIKDYYLHWVRQAPGKGLEWMGWIDPDQGDTYYAQKFQGRVTITRDRSTSTAYMELRSLRAEDTAVYYCNAAYGESSYPMDYWGQGTLVTVSSASTKGPSVFPLAPSSKSTSGGTAALGCLVKDYFPEPVTVSWNSGALTSGVHTFPAVLKSSGLYSLSSVVTVPSSSLGTQTYICNVNHKPSNTKVDKKVEPKSCDKTHTCPPCPAPELLGGPSVFLFPPKPKDTLMISRTPEVTCVVVDVSHEDPEVKFNWYVDGVEVHNAKTKPREEQYNSTYRVVSVLTVLHQDWLNGKEYKCKVSNKALPAPIEKTISKAKGQPREPQVYVLPPSREEMTKNQVSLLCLVKGFYPSDIAVEWESNGQPENNYLTWPPVLDSDGSFFLYSKLTVDKSRWQQGNVFSCSVMHEALHNHYTQKSLSLSPGK
light 2: QIVLSQSPAILSASPGEKVTMTCRASSSVSYIHWFQQKPGSSPKPWIYATSNLASGVPVRFSGSGSGTSYSLTISRVEAEDAATYYCQQWTSNPPTFGGGTKLEIKRTVAAPSVAIFPPSDERLKSGTASVVCVLNNFYPREAKVQWKVDNALQSGNSQESVTEQDSKDSTYSLSSRLTLSKADYEKHKVYACEVTHQGLSSPVTKSFNRGEC
heavy 2: QVQLQQPGAELVKPGASVKMSCKASGYTFTSYNMHWVKQTPGRGLEWIGAIYPGNGDTSYNQKFKGKATLTADKSSSTAYMQLSSLTSEDSAVYYCARSTYYGGDWYFNVWGAGTTVTVSAASTKGPSVFPLAPSSKSTSGGTAWLGCEVTDYFPEPVTVSWNSGALTSGVHTFPAVLESSGLYSLSSVVTVPSSSLGTQTYICNVNHKPSNTKVDKKVEPKSCDKTHTCPPCPAPELLGGPSVFLFPPKPKDTLMISRTPEVTCVVVDVSHEDPEVKFNWYVDGVEVHNAKTKPREEQYNSTYRVVSVLTVLHQDWLNGKEYKCKVSNKALPAPIEKTISKAKGQPREPQVYVYPPSREEMTKNQVSLTCLVKGFYPSDIAVEWESNGQPENNYKTTPPVLDSDGSFALVSKLTVDKSRWQQGNVFSCSVMHEALHNHYTQKSLSLSPGK
What does the source list for B3?
EC50, activation of macrophage phagocytosis of OCI-Ly3 cells [3]: 1.4 nM; EC50, activation of macrophage phagocytosis of Raji cells [3]: 1.8 nM

— patent US20220340675A1 (CELGENE, published 2022)
